The values below come from US20180155451A1 (published 2018).

First the molecules themselves.
B1: GpH7-A5/GpH7-B3 variant D270_08L/GpL16-k0 (antibody, human IgG1, kappa)
heavy 1: not shown
heavy 2: not shown
light: DIVMTQSPLSLPVTPGEPASISCQASESLVHSNRNTYLHWYLQKPGQSPQLLIYKVSNRFSGVPDRFSGSGSGTDFTLKISRVEAEDVGVYYCSQNTHVPPTFGQGTKVEIERTVAAPSVFIFPPSDEQLKSGTASVVCLLNNFYPREAKVQWKVDNALQSGNSQESVTEQDSKDSTYSLSSTLTLSKADYEKHKVYACEVTHQGLSSPVTKSFNRGEC
notes: He Ab: the mutation stands only in the GpH7-B3-derived H chain; also called He Ab D270L
B2: GpH7-A5/GpH7-B3 variant D270_13S/GpL16-k0 (antibody, human IgG1, kappa)
heavy 1: not shown
heavy 2: not shown
light: B1 light
notes: He Ab: the mutation stands only in the GpH7-B3-derived H chain; also called He Ab D270S
B3: GpH7-A5/GpH7-B3 variant E269_19Q/GpL16-k0 (antibody, human IgG1, kappa)
heavy 1: not shown
heavy 2: not shown
light: B1 light
notes: He Ab: the mutation stands only in the GpH7-B3-derived H chain; also called He Ab E269Q
B4: GpH7-A5/GpH7-B3 variant D270_10E/GpL16-k0 (antibody, human IgG1, kappa)
heavy 1: not shown
heavy 2: not shown
light: B1 light
notes: He Ab: the mutation stands only in the GpH7-B3-derived H chain; also called He Ab D270E
B5: GpH7-A5/GpH7-B3 variant D270_19Q/GpL16-k0 (antibody, human IgG1, kappa)
heavy 1: not shown
heavy 2: not shown
light: B1 light
notes: He Ab: the mutation stands only in the GpH7-B3-derived H chain; also called He Ab D270Q
B6: GpH7-A5/GpH7-B3 variant D270_12R/GpL16-k0 (antibody, human IgG1, kappa)
heavy 1: not shown
heavy 2: not shown
light: B1 light
notes: He Ab: the mutation stands only in the GpH7-B3-derived H chain; also called He Ab D270R
B7: GpH7-A5/GpH7-B3 variant P271_20W/GpL16-k0 (antibody, human IgG1, kappa)
heavy 1: not shown
heavy 2: not shown
light: B1 light
notes: He Ab: the mutation stands only in the GpH7-B3-derived H chain; also called He Ab P271W
B8: GpH7-A5/GpH7-B3 variant D270_07I/GpL16-k0 (antibody, human IgG1, kappa)
heavy 1: not shown
heavy 2: not shown
light: B1 light
notes: He Ab: the mutation stands only in the GpH7-B3-derived H chain; also called He Ab D270I
B9: GpH7-A5/GpH7-B3 variant Q295_02A/GpL16-k0 (antibody, human IgG1, kappa)
heavy 1: not shown
heavy 2: not shown
light: B1 light
notes: He Ab: the mutation stands only in the GpH7-B3-derived H chain; also called He Ab Q295A
B10: GpH7-A5/GpH7-B3 variant Q295_09D/GpL16-k0 (antibody, human IgG1, kappa)
heavy 1: not shown
heavy 2: not shown
light: B1 light
notes: He Ab: the mutation stands only in the GpH7-B3-derived H chain; also called He Ab Q295D
B11: GpH7-A5/GpH7-B3 variant D270_03V/GpL16-k0 (antibody, human IgG1, kappa)
heavy 1: not shown
heavy 2: not shown
light: B1 light
notes: He Ab: the mutation stands only in the GpH7-B3-derived H chain; also called He Ab D270V
B12: GpH7-A5/GpH7-B3 variant D270_18N/GpL16-k0 (antibody, human IgG1, kappa)
heavy 1: not shown
heavy 2: not shown
light: B1 light
notes: He Ab: the mutation stands only in the GpH7-B3-derived H chain; also called He Ab D270N
B13: GpH7-A5/GpH7-B3 variant D270_15Y/GpL16-k0 (antibody, human IgG1, kappa)
heavy 1: not shown
heavy 2: not shown
light: B1 light
notes: He Ab: the mutation stands only in the GpH7-B3-derived H chain; also called He Ab D270Y

In one assay the target is T1, FcγRIIIa extracellular domain with C-terminal His tag (human, UniProt P08637 17-208).
T1 construct: extracellular domain; also called FcgRIIIa; 3a; not shown: His tag at the C terminus
T1 sequence (P08637 17-208): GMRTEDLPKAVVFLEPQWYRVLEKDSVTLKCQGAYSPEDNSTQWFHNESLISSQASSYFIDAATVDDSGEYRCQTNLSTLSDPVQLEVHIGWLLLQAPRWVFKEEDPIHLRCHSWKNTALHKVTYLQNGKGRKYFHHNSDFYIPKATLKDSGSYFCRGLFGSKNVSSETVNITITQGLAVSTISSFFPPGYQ
Kind of assay: SPR (Biacore), antibody captured via antigen peptide, FcγR as analyte; binding relative to GpH7-A5/GpH7-B3/GpL16-k0 = 100. For orientation: SPR reads the build-up and loss of mass on a sensor chip optically.
In the case of B1, the He/Con_3a was 71.8 relative (control = 100).
In the case of B2, the He/Con_3a is 56.7 relative (control = 100).
Take B3: the He/Con_3a was 65 relative (control = 100).
Regarding B4, the He/Con_3a is 123 relative (control = 100).
Same read-out and setting: next, B5: 81.9 relative (control = 100).
Same read-out and setting: the figure for B6 is 28.8 relative (control = 100); for B7 it is 74.1 relative (control = 100); for B8 it is 69.6 relative (control = 100).
The same measure, in the same setting: next, B9: 106 relative (control = 100); B10: 81.5 relative (control = 100); B11: 60.3 relative (control = 100).
Take B12: the He/Con_3a is 56.5 relative (control = 100).
Same read-out and setting: next, B13: 54.5 relative (control = 100).

For the next assay, the target named is T2, FcγRIIb extracellular domain with C-terminal His tag (human, UniProt P31994 43-217).
T2 construct: extracellular domain; also called FcgRIIb; 2b; not shown: His tag at the C terminus
T2 sequence (looked up): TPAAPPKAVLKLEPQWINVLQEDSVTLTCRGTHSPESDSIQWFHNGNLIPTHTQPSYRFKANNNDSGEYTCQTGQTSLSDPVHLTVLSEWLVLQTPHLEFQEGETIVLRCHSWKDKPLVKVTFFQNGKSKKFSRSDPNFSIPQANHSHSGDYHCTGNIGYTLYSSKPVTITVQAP
The description is as above.
As for B1, the He/Con_2b was 53.6 relative (control = 100).
Same read-out and setting: next, B2: 44.2 relative (control = 100); B3: 44.3 relative (control = 100); B4: 76.5 relative (control = 100).
On the same count and under the same terms, next, B5: 48 relative (control = 100); B6: 18.3 relative (control = 100); B7: 58.1 relative (control = 100).
The same measure, in the same setting: next, B8: 41.5 relative (control = 100); B9: 79.7 relative (control = 100).
Turning to B10, the He/Con_2b was 60.8 relative (control = 100).
Consider B11, for which the He/Con_2b was 39.5 relative (control = 100).
The same measure, in the same setting: the figure for B12 is 40.3 relative (control = 100); for B13 it is 44.9 relative (control = 100).

Another assay deals with T1, FcγRIIIa extracellular domain with …. Kind of assay: ratio of He/Con_3a to He/Con_2b (FcγRIIIa over FcγRIIb), SPR relative binding. The protocol:
The heterodimerized antibodies He Abs in which one of the H chains was introduced with an alteration were assayed for their binding activities to each activating FcγR and inhibitory FcγR according to the method described in Example 4. […] The activating FcγRs in FIGS. 26, 27, 28, and 29 are FcγRIa, FcγRIIa (R), FcγRIIa (H), and FcγRIIIa, respectively.
Analysis of interaction between objective antibody and the FcγR was carried out using Biacore T100 (GE Healthcare). HBS-EP+ (GE Healthcare) was used as the running buffer, and the measurement temperature was set to 25° C. Chips produced by immobilizing the antigen peptide by the amine coupling method to a Series S Sencor Chip CM5 (GE Healthcare), or alternatively, chips produced by allowing preliminarily biotinylated antigen peptides to interact with and immobilize onto a Series S Sensor Chip SA (certified) (GE Healthcare) were used. Antibodies of interest were captured onto an antigen peptide-immobilized chip, and allowed to interact to each FcγR diluted with running buffer. To regenerate and repeatedly use the chip, the antibodies captured on the chip were washed off by reacting 10 mM glycine-HCl, pH 1.5.
Consider B1, for which the “IIIa/IIb (He_3a/2b)” value worked out at 1.34.
Consider B2, for which the “IIIa/IIb (He_3a/2b)” value was determined as 1.28.
The same measure, in the same setting: next, B3: 1.47.
For the molecule B4, the “IIIa/IIb (He_3a/2b)” value was 1.61.
Take B5: the “IIIa/IIb (He_3a/2b)” value came out at 1.7.
On the same count and under the same terms, next, B6: 1.58; B7: 1.28; B8: 1.68.
In the case of B9, the “IIIa/IIb (He_3a/2b)” value amounted to 1.32.
On the same count and under the same terms, the figure for B10 is 1.34; for B11 it is 1.52; for B12 it is 1.4.
Regarding B13, the “IIIa/IIb (He_3a/2b)” value came out at 1.22.
